{"source": "the Human Domainome abundance scans (Beltran et al. 2025)", "parents": {"B1": {"name": "Storkhead-box protein 2, residues 64 to 141; numbered along this chain, Q9P2F5 (parent)", "chain": "SPISQSQFIPLGEILCLAISAMNSARKPVTQEALMEHLTTCFPGVPTPSQEILRHTLNTLVRERKIYPTPDGYFIVTP"}, "B2": {"name": "Far upstream element-binding protein 3, residues 75 to 150; numbered along this chain, Q96I24 (parent)", "chain": "RTVITEEFKVPDKMVGFIIGRGGEQISRIQAESGCKIQIASESSGIPERPCVLTGTPESIEQAKRLLGQIVDRCRN"}}, "note": "± gives the uncertainty stated by the source."}
{"variants_of": "B1", "assay": "abundance fitness (aPCA) (normalised: wild type 0, dead -1); higher = more abundant; growth selection in yeast, the domain comes from the species named", "settings": "Homo sapiens"}
{"variant": "I9E", "abundance fitness": "0.074 ± 0.1"}
{"variant": "H37M", "abundance fitness": "-0.357 ± 0.072"}
{"variant": "H37N", "abundance fitness": "-0.092 ± 0.11"}
{"variant": "E63R", "abundance fitness": "-0.015 ± 0.029"}
{"variant": "E63I", "abundance fitness": "-0.234 ± 0.13"}
{"variant": "E63H", "abundance fitness": "-0.006 ± 0.075"}
{"variant": "E63V", "abundance fitness": "-0.049 ± 0.047"}
{"variant": "F74H", "abundance fitness": "-0.248 ± 0.13"}
{"variant": "F74E", "abundance fitness": "-0.004 ± 0.086"}
{"variant": "F74D", "abundance fitness": "-0.038 ± 0.11"}
{"variant": "F74K", "abundance fitness": "0.024 ± 0.053"}
{"variant": "F74G", "abundance fitness": "0.052 ± 0.035"}
{"variant": "L34C", "abundance fitness": "-0.048 ± 0.074"}
{"variant": "L34M", "abundance fitness": "-0.208 ± 0.087"}
{"variant": "P43K", "abundance fitness": "0.048 ± 0.057"}
{"variant": "P43I", "abundance fitness": "-0.092 ± 0.11"}
{"variant": "P43C", "abundance fitness": "-0.135 ± 0.026"}
{"variant": "E32I", "abundance fitness": "-0.072 ± 0.15"}
{"variant": "E32W", "abundance fitness": "-0.139 ± 0.047"}
{"variant": "E32S", "abundance fitness": "-0.03 ± 0.048"}
{"variant": "E32Q", "abundance fitness": "0.041 ± 0.065"}
{"variant": "E32L", "abundance fitness": "-0.117 ± 0.046"}
{"variant": "S6G", "abundance fitness": "-0.041 ± 0.032"}
{"variant": "Q31F", "abundance fitness": "-0.095 ± 0.073"}
{"variant": "T40N", "abundance fitness": "-0.133 ± 0.17"}
{"variant": "T40P", "abundance fitness": "-0.551 ± 0.06"}
{"variant": "T40R", "abundance fitness": "0.016 ± 0.041"}
{"variant": "T40V", "abundance fitness": "-0.013 ± 0.051"}
{"variant": "T40D", "abundance fitness": "-0.069 ± 0.098"}
{"variant": "T40M", "abundance fitness": "-0.104 ± 0.13"}
{"variant": "L11S", "abundance fitness": "-0.396 ± 0.056"}
{"variant": "S1V", "abundance fitness": "-0.354 ± 0.07"}
{"variant": "S1K", "abundance fitness": "-0.717 ± 0.15"}
{"variant": "S1A", "abundance fitness": "-0.395 ± 0.083"}
{"variant": "M22S", "abundance fitness": "-0.306 ± 0.04"}
{"variant": "M22I", "abundance fitness": "-0.128 ± 0.097"}
{"variant": "E51G", "abundance fitness": "-0.1 ± 0.044"}
{"variant": "E51N", "abundance fitness": "-0.301 ± 0.17"}
{"variant": "E51A", "abundance fitness": "-0.085 ± 0.048"}
{"variant": "P10S", "abundance fitness": "-0.067 ± 0.047"}
{"variant": "P10Y", "abundance fitness": "0.003 ± 0.23"}
{"variant": "P10E", "abundance fitness": "-0.043 ± 0.072"}
{"variant": "P10H", "abundance fitness": "-0.101 ± 0.099"}
{"variant": "I52M", "abundance fitness": "0.056 ± 0.064"}
{"variant": "I52T", "abundance fitness": "0.025 ± 0.069"}
{"variant": "I52R", "abundance fitness": "-0.086 ± 0.045"}
{"variant": "I52A", "abundance fitness": "-0.085 ± 0.045"}
{"variant": "A18H", "abundance fitness": "-0.125 ± 0.16"}
{"variant": "A18D", "abundance fitness": "-1.1 ± 0.38"}
{"variant": "S20A", "abundance fitness": "-0.104 ± 0.039"}
{"variant": "S20E", "abundance fitness": "-0.022 ± 0.069"}
{"variant": "S20T", "abundance fitness": "-0.006 ± 0.06"}
{"variant": "S20H", "abundance fitness": "-0.219 ± 0.12"}
{"variant": "S20L", "abundance fitness": "-0.172 ± 0.024"}
{"variant": "D71Y", "abundance fitness": "-0.243 ± 0.099"}
{"variant": "D71M", "abundance fitness": "-0.054 ± 0.083"}
{"variant": "T69G", "abundance fitness": "-0.003 ± 0.032"}
{"variant": "T69Y", "abundance fitness": "-0.358 ± 0.13"}
{"variant": "T69R", "abundance fitness": "-0.015 ± 0.028"}
{"variant": "T69I", "abundance fitness": "-0.298 ± 0.15"}
{"variant": "T69A", "abundance fitness": "-0.028 ± 0.061"}
{"variant": "V61A", "abundance fitness": "0.029 ± 0.042"}
{"variant": "V61H", "abundance fitness": "-0.122 ± 0.097"}
{"variant": "V61M", "abundance fitness": "0.052 ± 0.067"}
{"variant": "A33S", "abundance fitness": "-0.001 ± 0.041"}
{"variant": "A33H", "abundance fitness": "0.019 ± 0.079"}
{"variant": "A33E", "abundance fitness": "-0.067 ± 0.047"}
{"variant": "P2S", "abundance fitness": "0.002 ± 0.051"}
{"variant": "P2D", "abundance fitness": "0.124 ± 0.095"}
{"variant": "P2V", "abundance fitness": "0.001 ± 0.052"}
{"variant": "P2I", "abundance fitness": "-0.037 ± 0.14"}
{"variant": "P2N", "abundance fitness": "0.188 ± 0.17"}
{"variant": "T47C", "abundance fitness": "-0.115 ± 0.053"}
{"variant": "T47H", "abundance fitness": "-0.166 ± 0.12"}
{"variant": "T47I", "abundance fitness": "0.11 ± 0.064"}
{"variant": "T47A", "abundance fitness": "-0.082 ± 0.034"}
{"variant": "T47F", "abundance fitness": "-0.273 ± 0.055"}
{"variant": "L38W", "abundance fitness": "-0.048 ± 0.061"}
{"variant": "L38V", "abundance fitness": "-0.075 ± 0.047"}
{"variant": "L38C", "abundance fitness": "-0.316 ± 0.12"}
{"variant": "L38I", "abundance fitness": "-0.091 ± 0.13"}
{"variant": "F8K", "abundance fitness": "-0.137 ± 0.11"}
{"variants_of": "B2", "assay": "abundance fitness (aPCA) (normalised: wild type 0, dead -1); higher = more abundant; growth selection in yeast, the domain comes from the species named", "settings": "Homo sapiens"}
{"variant": "N76K", "abundance fitness": "-0.183 ± 0.079"}
{"variant": "N76Q", "abundance fitness": "-0.145 ± 0.11"}
{"variant": "N76F", "abundance fitness": "0.023 ± 0.1"}
{"variant": "N76I", "abundance fitness": "-0.178 ± 0.086"}
{"variant": "N76H", "abundance fitness": "-0.1 ± 0.076"}
{"variant": "N76P", "abundance fitness": "0.007 ± 0.059"}
{"variant": "N76R", "abundance fitness": "0.055 ± 0.042"}
{"variant": "N76W", "abundance fitness": "-0.092 ± 0.056"}
{"variant": "N76A", "abundance fitness": "0.036 ± 0.055"}
{"variant": "N76Y", "abundance fitness": "-0.027 ± 0.095"}
{"variant": "N76L", "abundance fitness": "-0.028 ± 0.049"}
{"variant": "N76E", "abundance fitness": "-0.025 ± 0.067"}
{"variant": "N76T", "abundance fitness": "-0.057 ± 0.061"}
{"variant": "N76M", "abundance fitness": "-0.008 ± 0.077"}
{"variant": "N76C", "abundance fitness": "-0.069 ± 0.06"}
{"variant": "V71W", "abundance fitness": "-0.175 ± 0.035"}
{"variant": "V71Y", "abundance fitness": "-0.047 ± 0.054"}
{"variant": "V71T", "abundance fitness": "-0.026 ± 0.042"}
{"variant": "D72I", "abundance fitness": "-0.225 ± 0.064"}
{"variant": "D72W", "abundance fitness": "-0.108 ± 0.035"}
{"variant": "D72V", "abundance fitness": "-0.093 ± 0.029"}
{"variant": "D72Q", "abundance fitness": "-0.086 ± 0.041"}
{"variant": "D72K", "abundance fitness": "-0.048 ± 0.049"}
{"variant": "D72E", "abundance fitness": "0.003 ± 0.033"}
{"variant": "D72N", "abundance fitness": "-0.155 ± 0.061"}
{"variant": "D72C", "abundance fitness": "-0.138 ± 0.046"}
{"variant": "D72G", "abundance fitness": "-0.033 ± 0.026"}
{"variant": "D72Y", "abundance fitness": "-0.124 ± 0.064"}
{"variant": "D72L", "abundance fitness": "-0.083 ± 0.033"}
{"variant": "D72P", "abundance fitness": "-0.142 ± 0.039"}
{"variant": "D72A", "abundance fitness": "-0.052 ± 0.029"}
{"variant": "D72T", "abundance fitness": "-0.1 ± 0.04"}
{"variant": "D72M", "abundance fitness": "-0.084 ± 0.042"}
{"variant": "D72H", "abundance fitness": "-0.023 ± 0.058"}
{"variant": "D72S", "abundance fitness": "-0.035 ± 0.033"}
{"variant": "D72F", "abundance fitness": "-0.118 ± 0.065"}
{"variant": "C74G", "abundance fitness": "0.041 ± 0.027"}
{"variant": "C74W", "abundance fitness": "-0.022 ± 0.031"}
{"variant": "C74N", "abundance fitness": "-0.007 ± 0.071"}
{"variant": "C74M", "abundance fitness": "-0.021 ± 0.042"}
{"variant": "C74S", "abundance fitness": "-0.01 ± 0.032"}
{"variant": "C74K", "abundance fitness": "-0.027 ± 0.054"}
{"variant": "C74H", "abundance fitness": "0.031 ± 0.049"}
{"variant": "C74Q", "abundance fitness": "-0.002 ± 0.04"}
{"variant": "C74A", "abundance fitness": "0.02 ± 0.029"}
{"variant": "C74R", "abundance fitness": "0.008 ± 0.027"}
{"variant": "C74Y", "abundance fitness": "-0.126 ± 0.059"}
{"variant": "C74E", "abundance fitness": "-0.041 ± 0.037"}
{"variant": "C74T", "abundance fitness": "0.004 ± 0.036"}
{"variant": "C74V", "abundance fitness": "-0.037 ± 0.03"}
{"variant": "C74I", "abundance fitness": "-0.057 ± 0.071"}
{"variant": "C74D", "abundance fitness": "-0.068 ± 0.058"}
{"variant": "R73G", "abundance fitness": "0.054 ± 0.029"}
{"variant": "R73T", "abundance fitness": "0.019 ± 0.042"}
{"variant": "R73C", "abundance fitness": "-0.157 ± 0.05"}
{"variant": "R73V", "abundance fitness": "-0.037 ± 0.033"}
{"variant": "R73E", "abundance fitness": "0.043 ± 0.036"}
{"variant": "R73M", "abundance fitness": "-0.048 ± 0.042"}
{"variant": "R73I", "abundance fitness": "-0.136 ± 0.07"}
{"variant": "R73D", "abundance fitness": "0.047 ± 0.052"}
{"variant": "R73F", "abundance fitness": "-0.103 ± 0.059"}
{"variant": "R73P", "abundance fitness": "-0.001 ± 0.045"}
{"variant": "R73W", "abundance fitness": "-0.089 ± 0.039"}
{"variant": "R73N", "abundance fitness": "0.037 ± 0.066"}
{"variant": "R73Y", "abundance fitness": "-0.151 ± 0.058"}
{"variant": "R73S", "abundance fitness": "-0.04 ± 0.033"}
{"variant": "R73L", "abundance fitness": "-0.104 ± 0.033"}
{"variant": "R75P", "abundance fitness": "-0.025 ± 0.038"}
{"variant": "R75N", "abundance fitness": "-0.126 ± 0.081"}
{"variant": "R75D", "abundance fitness": "-0.082 ± 0.058"}
{"variant": "R75E", "abundance fitness": "0.047 ± 0.043"}
{"variant": "R75A", "abundance fitness": "0.064 ± 0.032"}
{"variant": "R75F", "abundance fitness": "0.003 ± 0.073"}
{"variant": "R75K", "abundance fitness": "0.043 ± 0.061"}
{"variant": "R75H", "abundance fitness": "-0.006 ± 0.069"}
{"variant": "R75W", "abundance fitness": "0.007 ± 0.034"}
{"variant": "R75C", "abundance fitness": "-0.124 ± 0.055"}
{"variant": "R75S", "abundance fitness": "-0.021 ± 0.035"}
{"variant": "R75V", "abundance fitness": "0.008 ± 0.035"}
{"variant": "R75I", "abundance fitness": "-0.107 ± 0.067"}
{"variant": "R75M", "abundance fitness": "0.009 ± 0.051"}
{"variant": "R75G", "abundance fitness": "0.038 ± 0.026"}
{"variant": "R75Q", "abundance fitness": "-0.026 ± 0.052"}
{"variant": "R75T", "abundance fitness": "0.052 ± 0.044"}
{"variant": "R75L", "abundance fitness": "-0.039 ± 0.035"}
